In the data set the target is T1, His-tagged HMGB1 (UniProt P09429).
T1 sequence: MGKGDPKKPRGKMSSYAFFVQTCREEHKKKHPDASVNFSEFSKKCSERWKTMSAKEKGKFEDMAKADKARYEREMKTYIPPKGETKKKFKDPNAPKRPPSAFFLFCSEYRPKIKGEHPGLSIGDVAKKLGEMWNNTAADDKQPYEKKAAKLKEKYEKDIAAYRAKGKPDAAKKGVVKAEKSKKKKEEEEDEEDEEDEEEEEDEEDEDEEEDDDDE
The data set is described as follows: SPR. The following applies: comparative pool; no signal increase in FIG. 1; unit M inferred.

In turn, “GGGACGCUCACGUACGCUCANNNNNNNNNNNNNNNNNNNNNNNNNNNNNNNNNNNNNNNNUCAGUGCCUGGACGUGCAGU [40N random RNA pool]” yielded an equilibrium dissociation constant (Kd) of 1.04 µM. In other words, the single-digit micromolar range.

One may read the Kd as the equilibrium constant for the complex coming apart.

For the origin of these results see patent publication US20120208867.
